Experimental data as given in PMC12297522.

Legend:
[1] = target: trastuzumab (wild-type Fc) (human)
[2] = target: trastuzumab-PFc29 (human)

| serum half-life (t1/2) in hiFcRn mice, 5 mg/kg i.v. [1] | serum half-life in hiFcRn mice, 5 mg/kg i.v. [2] | serum half-life (t1/2) in C57BL/6 mice, 5 mg/kg i.v. [1] | serum half-life in C57BL/6 mice, 5 mg/kg i.v. [2] | Substance |
| --- | --- | --- | --- | --- |
| 8.3 days | 18.9 days |  |  | human FcRn-GST (from UniProt P55899 24-365) (receptor) |
|  |  | 13.1 days | 10.5 days | mouse FcRn-GST (from UniProt Q61559 22-365) (receptor) |
